Test results: publication PMC5732959, “BnaA.bZIP1 Negatively Regulates a Novel Small Peptide Gene, BnaC.SP6, Involved in Pollen Activity”

How the values were obtained:
BnaA.bZIP1-His [1] = target: T1, BnaA.bZIP1-His (Brassica napus, UniProt A0A078IFD5 1-139); test: EMSA; EMSA: 10 ul with 2 ul 5x EMSA/Gel-Shift Binding Buffer (Beyotime), 30 nM Cy5 probe, 30 min at 25 C; 6% native PAGE, 0.5x TBE pH 8.3, 4 C; settings: protein: recombinant, tags: His, pET-32a fusion (N-terminal vector tag), blunt
T1 sequence: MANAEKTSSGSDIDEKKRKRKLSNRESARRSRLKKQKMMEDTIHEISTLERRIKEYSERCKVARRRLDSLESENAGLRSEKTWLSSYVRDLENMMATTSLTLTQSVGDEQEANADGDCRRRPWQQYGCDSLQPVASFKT

BnaA.bZIP1-His [2] = target: T1, BnaA.bZIP1-His; test: competition; unlabeled probe at 200x, 400x, 800x reduces shift of Cy5-p59; EMSA: 10 ul with 2 ul 5x EMSA/Gel-Shift Binding Buffer (Beyotime), 30 nM Cy5 probe, 30 min at 25 C; 6% native PAGE, 0.5x TBE pH 8.3, 4 C; settings: protein: recombinant; tags: His; pET-32a fusion (N-terminal vector tag); blunt

B1: p59 (dsDNA)
DNA 1: AACGAAAGCCACCTCACGTCGTGCTATTTTCGGTGTAACCTTAACGGTGGATCTTTAAA
DNA 2: TTTAAAGATCCACCGTTAAGGTTACACCGAAAATAGCACGACGTGAGGTGGCTTTCGTT
- binding result (BnaA.bZIP1-His [1]; label: Cy5 (p59-CY5-F strand)): binds

B2: p59 unlabeled competitor (dsDNA)
DNA 1: AACGAAAGCCACCTCACGTCGTGCTATTTTCGGTGTAACCTTAACGGTGGATCTTTAAA
DNA 2: TTTAAAGATCCACCGTTAAGGTTACACCGAAAATAGCACGACGTGAGGTGGCTTTCGTT
- binding result (BnaA.bZIP1-His [2]): binds

B3: mp59 (dsDNA)
DNA 1: AACGAAAGCCACCTCTATGAGTGCTATTTTCGGTGTAACCTTAACGGTGGATCTTTAAA
DNA 2: TTTAAAGATCCACCGTTAAGGTTACACCGAAAATAGCACTCATAGAGGTGGCTTTCGTT
- binding result (BnaA.bZIP1-His [1]; label: Cy5 (mp59-CY5-F strand)): no binding
